For test [1], the target named is T1, rHuman HGF R/c-MET/Fc Chimera, CF (R&D Systems Cat#358-MT/CF) (human, UniProt P08581 25-932).
T1 construct: Bought reagent; also called HGF R/Fc; hepatocyte growth factor receptor; Fc part of the bought chimera not given
Kind of test: ECL (MSD multi-spot), antigen spotted on plate; Fab 352.5 nM; blank spot 494.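 Note: blank spot per well as comparator with Hit at signal to blank ratio of 4 or more.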

The target in test [2] is T2, rHuman ErbB2/Fc Chimera, CF (R&D Systems Cat#1129-ER) (human, UniProt P04626 23-652).
T2 construct: Bought reagent; also called HER2/neu; human epidermal growth factor 2 receptor; Fc part of the bought chimera not given
The test is described as above.

For test [3], the target named is T3, rHuman EGF R/Fc Chimera, CF (R&D Systems Cat#344-ER) (human, UniProt P00533 25-645).
T3 construct: Bought Fc chimera; also called epidermal growth factor receptor; Fc part of the bought chimera not given
Kind of test: ECL (MSD Multi-Spot) binding assay, antigen spotted on plate; Fab 51 nM; blank spot 335.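 Note: blank spot per well as comparator with Hit at signal to blank ratio of 4 or more.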

Test [4] addresses T4, rHuman Notch-1/Fc Chimera, CF (R&D Systems Cat#3647-TK) (human, UniProt P46531 19-526).
T4 construct: Bought Fc chimera; Fc part of the bought chimera not given
The description is as above.

Test [5] concerns the target T5, rHuman ErbB2/Fc Chimera, CF (R&D Systems Cat#1129-ER) (human, UniProt P04626 23-652).
T5 construct: Bought Fc chimera; also called HER2/neu; human epidermal growth factor 2 receptor; Fc part of the bought chimera not given
The test is described as above.

Test [6] has as its target T6, Recombinant Human DLL4 (R&D Systems Cat#1506-D4/CF) (human, UniProt Q9NR61 27-524).
T6 construct: Bought recombinant protein; also called delta-like protein 4; rHuman DLL4
Described as above.

The target in test [7] is T7, rHuman CD44/Fc Chimera, CF (R&D Systems Cat#3660-CD) (human, UniProt P16070 21-220).
T7 construct: Bought Fc chimera; Fc part of the bought chimera not given
The description is as above.

Test [8] concerns the target T8, rHuman Erythropoietin R/Fc Chimera, CF (R&D Systems Cat#963-ER) (human, UniProt P19235 25-250).
T8 construct: Bought Fc chimera; also called EPO R/Fc; Epo R; Fc part of the bought chimera not given
T8 sequence: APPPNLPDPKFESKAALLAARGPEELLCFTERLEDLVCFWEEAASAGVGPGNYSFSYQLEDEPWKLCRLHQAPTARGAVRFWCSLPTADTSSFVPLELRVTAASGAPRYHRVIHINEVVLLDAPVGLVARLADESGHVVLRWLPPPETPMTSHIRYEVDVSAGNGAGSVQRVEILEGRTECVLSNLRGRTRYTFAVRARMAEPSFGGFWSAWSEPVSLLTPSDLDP
The test is described as above.

In test [9] the target is T9, rHuman IGF-1 sR (IGF-1 sR), CF (R&D Systems Cat#391-GR) (human, UniProt P08069 31-932).
T9 construct: Bought soluble receptor; also called insulin-like growth factor-1 soluble receptor; IGF-R1
The test is described as above.

Test [10] addresses T10, rHuman ErbB2/Fc Chimera, CF (R&D Systems Cat#1129-ER) (human, UniProt P04626 23-652).
T10 construct: Bought Fc chimera; also called HER2/neu; not shown: Fc of the bought chimera
Kind of test: ECL (MSD multi-spot), antigen on plate, Fab 500 nM.

Test [11] addresses T11, Recombinant Human DLL4 (R&D Systems Cat#1506-D4/CF) (human, UniProt Q9NR61 27-524).
T11 construct: Bought recombinant protein; also called delta-like protein 4
Kind of test: ECL (MSD multi-spot), antigen on plate, Fab 500 nM.

Test [12] has as its target T12, rHuman IGF-1 sR (insulin-like growth factor-1 soluble receptor), CF (R&D Systems Cat#391-GR) (human, UniProt P08069 31-932).
T12 construct: Bought soluble receptor; also called IGF-R1
Kind of test: ECL (MSD multi-spot), antigen on plate, Fab 500 nM.

For test [13], the target named is T13, rHuman EGF R/Fc Chimera, CF (R&D Systems Cat#344-ER) (human, UniProt P00533 25-645).
T13 construct: Bought Fc chimera; also called ErbB-1; not shown: Fc of the bought chimera
Kind of test: ECL (MSD multi-spot), antigen on plate, Fab 500 nM.

Test [14] concerns the target T14, rHuman HGF R/c-MET/Fc Chimera, CF (R&D Systems Cat#358-MT/CF) (human, UniProt P08581 25-932).
T14 construct: Bought Fc chimera; also called HGF R/Fc; not shown: Fc of the bought chimera
Kind of test: ECL (MSD multi-spot), antigen on plate, Fab 500 nM.

The target in test [15] is T15, rHuman Notch-1/Fc Chimera, CF (R&D Systems Cat#3647-TK) (human, UniProt P46531 19-526).
T15 construct: Bought Fc chimera; not shown: Fc of the bought chimera
Kind of test: ECL (MSD multi-spot), antigen on plate, Fab 500 nM.

Test [16] deals with T16, rHuman Erythropoietin R/Fc Chimera, CF (R&D Systems Cat#963-ER) (human, UniProt P19235 25-250).
T16 construct: Bought Fc chimera; also called EPO R/Fc; Epo R; not shown: Fc of the bought chimera
T16 sequence: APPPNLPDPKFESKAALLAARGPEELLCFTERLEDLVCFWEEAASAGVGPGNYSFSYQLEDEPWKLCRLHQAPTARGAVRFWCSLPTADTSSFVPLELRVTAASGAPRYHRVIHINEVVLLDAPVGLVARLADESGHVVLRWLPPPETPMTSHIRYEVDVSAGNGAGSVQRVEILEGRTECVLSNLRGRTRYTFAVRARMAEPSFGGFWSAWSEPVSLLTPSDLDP
Kind of test: ECL (MSD multi-spot), antigen on plate, Fab 500 nM.

Test [17] deals with T17, rHuman CD44/Fc Chimera, CF (R&D Systems Cat#3660-CD) (human, UniProt P16070 21-220).
T17 construct: Bought Fc chimera; not shown: Fc of the bought chimera
Kind of test: ECL (MSD multi-spot), antigen on plate, Fab 500 nM.

Test [18] addresses T18, rHuman P-Cadherin/Fc Chimera, CF (R&D Systems Cat#861-PC) (human, UniProt P22223 108-654).
T18 construct: Bought Fc chimera; also called CDH3; not shown: Fc of the bought chimera
Kind of test: ECL (MSD multi-spot), antigen on plate, Fab 500 nM.

B1: Fab VH1-46_IGHD3-10*01_IGHJ4*01 & B3_IGKJ1*01 (Fab, V domains shown)
VH: QVQLVQSGAEVKKPGASVKVSCKASGYTFTSYYMHWVRQAPGQGLEWMGIINPSGGSTSYAQKFQGRVTMTRDTSTSTVYMELSSLRSEDTAVYYCAREYYYGSGSYYNDYFDYWGQGTLVTVSS
VL: not shown
notes: also called IGHV1-46*01
Turning to B1, the ECL signal in [1] came to 606; in [2] it was 514.

B2: Fab VH5-51_IGHD5-18*01>3_IGHJ4*01 & V3-4_IGLJ1*01 (Fab, V domains shown)
VH: EVQLVQSGAEVKKPGESLKISCKGSGYSFTSYWIGWVRQMPGKGLEWMGIIYPGDSDTRYSPSFQGQVTISADKSISTAYLQWSSLKASDTAMYYCARRGYSYGYDYFDYWGQGTLVTVSS
VL: QTVVTQEPSFSVSPGGTVTLTCGLSSGSVSTSYYPSWYQQTPGQAPRTLIYSTNTRSSGVPDRFSGSILGNKAALTITGAQADDESDYYCVLYMGSGISYVFGTGTKVTVL
notes: Tested as a Fab made in E. coli; also called IGHV5-51*03
Take B2: the ECL signal in [3] came out at 816; in test [4], 685; in [5] it was 1250; in test [6], 17000; in test [7] it was 651; in [8], 750. The ECL signal in test [9] turned out to be 1050.

B3: Fab VH1-46_IGHD6-6*01_IGHJ1*01_S102A_S103P_S104Y_H111Y & L6_IGKJ1*01 (Fab, V domains shown)
VH: QVQLVQSGAEVKKPGASVKVSCKASGYTFTSYYMHWVRQAPGQGLEWMGIINPSGGSTSYAQKFQGRVTMTRDTSTSTVYMELSSLRSEDTAVYYCAREEYAPYSAEYFQYWGQGTLVTVSS
VL: not shown
notes: Fab made in E. coli; The heavy chain also carries CH1 with Flag and His tags from Plasmid A, and the light chain carries kappa CL from Plasmid C
In the case of B3, the ECL signal in test [10] was found to be 596 ECL signal; in [11], 106000 ECL signal; in test [12], 747 ECL signal; in test [13], 758 ECL signal; in [14], 841 ECL signal; in [15] it was 689 ECL signal. In addition, the ECL signal was determined as 1270 ECL signal in test [16], 604 ECL signal in test [17] and 1200 ECL signal in test [18].

Source of the values: US20120058906A1 (published 2012).
